The record followed here is publication PMC1475855.

Assay in all cases: SEC; FPLC of native protein with His-tag cleaved; HiLoad-16/60 Superdex200, 1 x PBS, 4°C, 1 ml/min; column calibrated with catalase, aldolase, chymotrypsinogen A and ribonuclease A
In assay [1] the target is ratiometric pHluorin (Aequorea victoria).
Assay [2] has as its target GFP from the orange seapen Ptilosarcus gurneyi (Pt-GFP) (Ptilosarcus gurneyi).
In assay [3] the target is ecliptic pHluorin (Aequorea victoria).

In the case of ratiometric pHluorin, the stoichiometry N in assay [1] is 2.
Substance “GFP from the orange seapen Ptilosarcus gurneyi (Pt-GFP) (natural protein)” returned a stoichiometry N in assay [2] of 4.
In assay [3], ecliptic pHluorin registered a stoichiometry N of 2.
